This note sets out measurements from publication PMC9482650, “Quantitative fragmentomics allow affinity mapping of interactomes” (Nature Communications, 2022).

Common to all, as to test: holdup assay
Holding throughout (set-up): key: below the threshold = too weak to quantify, mostly under pKd 3.1 to 4

Test [1] addresses T1, TX1BP3, O14907.
T1 sequence (O14907 10-122, limits assumed, looked up): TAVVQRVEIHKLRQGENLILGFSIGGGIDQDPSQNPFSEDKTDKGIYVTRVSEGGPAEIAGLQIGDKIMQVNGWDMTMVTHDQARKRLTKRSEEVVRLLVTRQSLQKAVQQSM

For test [2], the target named is DLG1_1, Q12959.
The target of test [3] is T2, SNTA1, Q13424.
T2 sequence (Q13424 82-180, limits assumed, looked up): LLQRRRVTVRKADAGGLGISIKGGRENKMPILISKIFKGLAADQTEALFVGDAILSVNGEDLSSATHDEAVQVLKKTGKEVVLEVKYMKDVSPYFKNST

For test [4], the target named is Inadl_4, Q8NI35.
Chain of Inadl_4, Q8NI35 (Q8NI35 547-651): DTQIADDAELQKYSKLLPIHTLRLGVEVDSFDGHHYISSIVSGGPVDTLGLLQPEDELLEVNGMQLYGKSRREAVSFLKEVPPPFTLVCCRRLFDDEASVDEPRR
In test [5] the target is T3, PDZD7_3, Q9H5P4.
T3 sequence (Q9H5P4 857-944, limits assumed, looked up): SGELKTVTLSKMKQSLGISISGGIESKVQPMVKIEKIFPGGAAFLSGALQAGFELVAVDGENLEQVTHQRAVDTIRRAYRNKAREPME

Test [6] deals with T4, RAPGEF6, Q8TEU7.
T4 sequence (Q8TEU7 525-625, limits assumed, looked up): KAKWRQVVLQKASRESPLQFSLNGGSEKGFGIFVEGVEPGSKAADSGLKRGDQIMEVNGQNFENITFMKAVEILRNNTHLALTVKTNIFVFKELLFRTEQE

Test [7] concerns the target DLG4_1, P78352.
The target of test [8] is DLG1_3, Q12959.
In test [9] the target is Inadl_3, Q8NI35.
Chain of Inadl_3, Q8NI35 (Q8NI35 359-469): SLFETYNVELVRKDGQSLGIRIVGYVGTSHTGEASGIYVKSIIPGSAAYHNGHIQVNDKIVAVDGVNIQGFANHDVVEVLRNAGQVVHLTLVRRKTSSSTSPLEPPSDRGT
The target in test [10] is T5, LIN7C, Q9NUP9.
T5 sequence (Q9NUP9 88-185, limits assumed, looked up): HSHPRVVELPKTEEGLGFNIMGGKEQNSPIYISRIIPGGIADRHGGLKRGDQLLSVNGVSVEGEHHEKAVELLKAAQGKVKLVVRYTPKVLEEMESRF

The target in test [11] is MAGI1_2, Q96QZ7.
Chain of MAGI1_2, Q96QZ7 (Q96QZ7 456-580): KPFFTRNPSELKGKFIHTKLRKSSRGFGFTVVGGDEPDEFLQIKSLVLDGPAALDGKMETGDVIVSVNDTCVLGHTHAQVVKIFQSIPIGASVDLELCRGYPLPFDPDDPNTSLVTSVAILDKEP
Test [12] addresses T6, APBA2_1, Q99767.
T6 sequence (Q99767 563-664, limits assumed, looked up): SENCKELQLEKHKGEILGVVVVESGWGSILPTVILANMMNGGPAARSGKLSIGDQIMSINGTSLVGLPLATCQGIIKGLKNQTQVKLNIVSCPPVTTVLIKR

For test [13], the target named is T7, HTRA4, P83105.
T7 sequence (P83105 378-476, limits assumed, looked up): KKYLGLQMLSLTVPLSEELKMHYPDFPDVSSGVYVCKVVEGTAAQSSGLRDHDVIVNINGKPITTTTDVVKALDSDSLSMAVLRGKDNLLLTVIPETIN

Test [14] deals with T8, APBA2_2, Q99767.
T8 sequence (Q99767 654-744, limits assumed, looked up): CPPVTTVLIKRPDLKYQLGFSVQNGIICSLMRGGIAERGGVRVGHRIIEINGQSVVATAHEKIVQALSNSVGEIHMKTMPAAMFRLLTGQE

Test [15] addresses T9, GRIP1_3, Q9Y3R0.
T9 sequence (Q9Y3R0 247-346, limits assumed, looked up): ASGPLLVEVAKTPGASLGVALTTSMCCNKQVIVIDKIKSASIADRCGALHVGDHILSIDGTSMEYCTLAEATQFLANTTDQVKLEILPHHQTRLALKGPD

The target of test [16] is T10, GRIP1_2, Q9Y3R0.
T10 sequence (Q9Y3R0 145-248, limits assumed, looked up): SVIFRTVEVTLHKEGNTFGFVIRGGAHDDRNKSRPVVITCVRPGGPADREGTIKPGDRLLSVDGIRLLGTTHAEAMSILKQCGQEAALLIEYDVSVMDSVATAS

The target in test [17] is T11, TIAM2, Q8IVF5.
T11 sequence (Q8IVF5 885-986, limits assumed, looked up): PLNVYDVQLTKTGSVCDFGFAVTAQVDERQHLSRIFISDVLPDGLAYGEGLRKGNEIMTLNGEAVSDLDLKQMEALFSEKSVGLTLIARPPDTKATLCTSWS

The target of test [18] is T12, DFNB31_3, Q9P202.
T12 sequence (Q9P202 811-907, limits assumed, looked up): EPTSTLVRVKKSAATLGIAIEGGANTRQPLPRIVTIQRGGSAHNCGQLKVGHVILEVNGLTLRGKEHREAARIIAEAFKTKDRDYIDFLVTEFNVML

In test [19] the target is T13, APBA1_1, Q02410.
T13 sequence (Q02410 651-752, limits assumed, looked up): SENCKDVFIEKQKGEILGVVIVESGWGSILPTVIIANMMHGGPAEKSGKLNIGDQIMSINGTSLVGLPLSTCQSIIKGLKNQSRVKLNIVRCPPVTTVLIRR

Test [20] concerns the target MAGI2_5, Q86UL8.
Test [21] has as its target Inadl_9, Q8NI35.
Test [22] has as its target T14, SYNJ2BP, P57105.
T14 sequence (P57105 8-110, limits assumed, looked up): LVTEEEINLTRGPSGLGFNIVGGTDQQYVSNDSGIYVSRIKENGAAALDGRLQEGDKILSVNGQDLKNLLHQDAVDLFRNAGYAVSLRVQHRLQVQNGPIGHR

Setting [23] is: plain residues with an end cap or a label only (N-terminal biotin on a linker: ahx).
Where [24] appears, read: plain residues with an end cap or a label only (N-terminal biotin on a linker: ttds).
The mark [25] stands for this setting: plain residues with an end cap or a label only (N-terminal biotin on a linker: ado-ado).

Chain of MAGI2_5, Q86UL8 (Q86UL8 915-1017): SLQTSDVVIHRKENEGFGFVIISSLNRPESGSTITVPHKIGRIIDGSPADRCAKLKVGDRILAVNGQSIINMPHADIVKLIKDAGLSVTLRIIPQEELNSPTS
Chain of Inadl_9, Q8NI35 (Q8NI35 1530-1615): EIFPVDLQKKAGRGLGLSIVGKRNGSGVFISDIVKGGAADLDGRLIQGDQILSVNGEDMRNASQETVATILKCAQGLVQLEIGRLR
Chain of DLG4_1, P78352 (P78352 62-152): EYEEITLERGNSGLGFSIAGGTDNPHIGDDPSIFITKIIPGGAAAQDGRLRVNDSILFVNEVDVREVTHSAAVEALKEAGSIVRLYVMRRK

By pKd is commonly meant −log10 of the Kd, conventionally taken in molar units. On to KTSAHHATFV [RGS12, O14924], for which the negative-log Kd (pKd) in test [1] (setting [23]) is 3.78; in [2] (setting [23]) it was 3.93; in test [3] (setting [23]) it was 3.63; in test [4] (setting [23]), “below the threshold”; in test [5] (setting [23]), 4.31; in test [6] (setting [23]), “below the threshold”. Further, the pKd was 4.22 in test [7] (setting [23]); “below the threshold” in test [8] (setting [23]); “below the threshold” in [9] (setting [23]); “below the threshold” in test [10] (setting [23]); 4.03 in test [11] (setting [23]); “below the threshold” in [12] (setting [23]). For the same molecule, the pKd in [13] (setting [23]) was 3.97; in test [14] (setting [23]), “below the threshold”; in test [15] (setting [23]) it was “below the threshold”; in test [16] (setting [23]), “below the threshold”; in test [17] (setting [23]), “below the threshold”; in test [18] (setting [23]) it was “below the threshold”. The pKd result in test [19] (setting [23]) is “below the threshold”; in test [20] (setting [23]), 4.37; in test [21] (setting [23]), 4.42; in [22] (setting [23]), 4.26.

As to MERLRVETDV [ARHGEF16, Q5VV41], the pKd is 5.04 in test [1] (setting [24]); 5.01 in test [2] (setting [24]); 4.62 in test [3] (setting [24]); “below the threshold” in [4] (setting [24]); 4.08 in test [5] (setting [24]); “below the threshold” in test [6] (setting [24]). For the same molecule, the pKd in [7] (setting [24]) was 5.13; in [8] (setting [24]), 3.86; in test [9] (setting [24]), 3.8; in test [10] (setting [24]), “below the threshold”; in test [11] (setting [24]), 3.9; in test [12] (setting [24]), “below the threshold”. Moreover, the negative-log Kd (pKd) in test [13] (setting [24]) is 3.74; in [14] (setting [24]) it was “below the threshold”; in [15] (setting [24]) it was “below the threshold”; in [16] (setting [24]) it was “below the threshold”; in test [17] (setting [24]), “below the threshold”; in [18] (setting [24]) it was “below the threshold”. Also, the pKd result was “below the threshold” in [19] (setting [24]), “below the threshold” in test [20] (setting [24]), “below the threshold” in test [21] (setting [24]) and 4.8 in [22] (setting [24]).

As to HIVEALETDV [PBK, Q96KB5], the pKd in [1] (setting [24]) was 5.03; in test [2] (setting [24]), 5.01; in test [3] (setting [24]), 5.28; in [4] (setting [24]) it was “below the threshold”; in test [5] (setting [24]) it was 4.6; in test [6] (setting [24]), “below the threshold”. Besides, the pKd was 5.11 in test [7] (setting [24]); “below the threshold” in test [8] (setting [24]); 4.46 in [9] (setting [24]); 4.05 in test [10] (setting [24]); “below the threshold” in test [11] (setting [24]); “below the threshold” in [12] (setting [24]). Also, the pKd entry in test [13] (setting [24]), in test [14] (setting [24]), in test [15] (setting [24]), in test [16] (setting [24]), in [17] (setting [24]) and in [18] (setting [24]) was “below the threshold” throughout. Further, the pKd entry in test [19] (setting [24]) is “below the threshold”; in [20] (setting [24]) it was 3.98; in [21] (setting [24]) it was “below the threshold”; in test [22] (setting [24]) it was 4.35.

With SVVSERISSV [HTR2C, P28335], the pKd in test [1] (setting [25]) is 4.06; in test [2] (setting [25]), 4.07; in test [3] (setting [25]) it was 4.59; in test [4] (setting [25]), “below the threshold”; in test [5] (setting [25]) it was 4.26; in test [6] (setting [25]), “below the threshold”. Further, the pKd in [7] (setting [25]) is 3.94; in test [8] (setting [25]), “below the threshold”; in [9] (setting [25]), “below the threshold”; in test [10] (setting [25]), “below the threshold”; in test [11] (setting [25]), “below the threshold”; in [12] (setting [25]) it was “below the threshold”. The pKd result in test [13] (setting [25]) was “below the threshold”; in test [14] (setting [25]) it was “below the threshold”; in test [15] (setting [25]) it was “below the threshold”; in [16] (setting [25]) it was “below the threshold”; in [17] (setting [25]), 3.88; in [18] (setting [25]), 3.76. For the same molecule, the pKd entry in test [19] (setting [25]) is “below the threshold”; in [20] (setting [25]), 4.01; in test [21] (setting [25]), “below the threshold”; in [22] (setting [25]), 4.46.

As for IQREDQETAV [DGKZ, Q13574], the pKd in test [1] (setting [24]) was 4.18; in test [2] (setting [24]) it was 4.73; in test [3] (setting [24]), 5.37; in test [4] (setting [24]), “below the threshold”; in test [5] (setting [24]), 4.32; in test [6] (setting [24]) it was “below the threshold”. Further, the pKd was 4.72 in [7] (setting [24]); 4.12 in test [8] (setting [24]); “below the threshold” in test [9] (setting [24]); 4.49 in test [10] (setting [24]); “below the threshold” in [11] (setting [24]); “below the threshold” in test [12] (setting [24]). Besides, the negative logarithm of the Kd (pKd) result in [13] (setting [24]), in [14] (setting [24]), in test [15] (setting [24]), in test [16] (setting [24]), in [17] (setting [24]) and in test [18] (setting [24]) was “below the threshold” throughout. The pKd entry is “below the threshold” in test [19] (setting [24]), 4.69 in test [20] (setting [24]), “below the threshold” in test [21] (setting [24]) and 5.31 in [22] (setting [24]).
